Columns and labels:
Assay in all cases: cell-based or functional assay
CSR 01 CD2.DH.z = molecular target: CSR 01 CD2.DH.z
CSR 82DH.TF2z = molecular target: CSR 82DH.TF2z
CSR 82DH.2TF2z WT = molecular target: CSR 82DH.2TF2z WT
CSR 2DH.2TF2z WT = molecular target: CSR 2DH.2TF2z WT
CSR 2DH.TF2z = molecular target: CSR 2DH.TF2z
Chain of CSR 2DH.TF2z (chain, as listed by the source): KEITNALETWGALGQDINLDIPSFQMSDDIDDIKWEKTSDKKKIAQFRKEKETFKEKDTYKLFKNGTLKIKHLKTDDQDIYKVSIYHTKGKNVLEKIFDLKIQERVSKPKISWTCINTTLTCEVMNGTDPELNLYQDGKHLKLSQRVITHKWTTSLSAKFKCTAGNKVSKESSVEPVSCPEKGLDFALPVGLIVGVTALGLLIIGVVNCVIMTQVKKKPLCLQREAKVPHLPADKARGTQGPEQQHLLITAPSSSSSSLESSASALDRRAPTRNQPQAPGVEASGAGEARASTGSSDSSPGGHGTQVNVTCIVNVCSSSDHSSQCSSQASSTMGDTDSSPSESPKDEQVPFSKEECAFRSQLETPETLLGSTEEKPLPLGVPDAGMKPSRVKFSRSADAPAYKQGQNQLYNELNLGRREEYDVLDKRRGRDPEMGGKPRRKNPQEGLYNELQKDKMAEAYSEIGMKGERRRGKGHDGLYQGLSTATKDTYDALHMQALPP

Chain of CSR 82DH.2TF2z WT (chain, as listed by the source): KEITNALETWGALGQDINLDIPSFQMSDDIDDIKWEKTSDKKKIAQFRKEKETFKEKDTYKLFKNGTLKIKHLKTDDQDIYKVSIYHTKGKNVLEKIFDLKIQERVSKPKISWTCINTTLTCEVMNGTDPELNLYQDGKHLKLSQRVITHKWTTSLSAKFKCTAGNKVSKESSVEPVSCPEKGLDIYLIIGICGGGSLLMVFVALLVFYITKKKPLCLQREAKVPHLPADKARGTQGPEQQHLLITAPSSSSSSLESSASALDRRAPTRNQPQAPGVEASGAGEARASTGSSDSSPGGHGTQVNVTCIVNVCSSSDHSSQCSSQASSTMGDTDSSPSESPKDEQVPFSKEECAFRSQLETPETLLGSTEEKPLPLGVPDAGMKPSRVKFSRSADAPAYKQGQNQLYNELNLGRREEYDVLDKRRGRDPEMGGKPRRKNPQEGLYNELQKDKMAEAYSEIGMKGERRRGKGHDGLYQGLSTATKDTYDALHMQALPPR
Chain of CSR 82DH.TF2z (chain, as listed by the source): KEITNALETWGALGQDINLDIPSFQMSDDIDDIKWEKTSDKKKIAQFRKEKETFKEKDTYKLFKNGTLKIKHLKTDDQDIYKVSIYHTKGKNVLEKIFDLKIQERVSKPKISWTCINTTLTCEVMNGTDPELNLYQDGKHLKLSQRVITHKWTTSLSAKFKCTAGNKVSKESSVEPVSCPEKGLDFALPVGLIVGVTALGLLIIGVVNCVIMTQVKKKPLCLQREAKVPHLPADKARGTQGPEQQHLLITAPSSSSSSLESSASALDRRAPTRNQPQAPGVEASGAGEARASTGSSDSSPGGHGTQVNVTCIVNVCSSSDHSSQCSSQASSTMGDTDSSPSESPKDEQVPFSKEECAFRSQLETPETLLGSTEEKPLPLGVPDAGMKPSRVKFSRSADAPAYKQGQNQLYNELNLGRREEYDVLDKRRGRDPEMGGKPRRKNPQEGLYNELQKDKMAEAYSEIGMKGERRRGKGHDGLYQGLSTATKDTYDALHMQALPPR
Chain of CSR 01 CD2.DH.z (chain, as listed by the source): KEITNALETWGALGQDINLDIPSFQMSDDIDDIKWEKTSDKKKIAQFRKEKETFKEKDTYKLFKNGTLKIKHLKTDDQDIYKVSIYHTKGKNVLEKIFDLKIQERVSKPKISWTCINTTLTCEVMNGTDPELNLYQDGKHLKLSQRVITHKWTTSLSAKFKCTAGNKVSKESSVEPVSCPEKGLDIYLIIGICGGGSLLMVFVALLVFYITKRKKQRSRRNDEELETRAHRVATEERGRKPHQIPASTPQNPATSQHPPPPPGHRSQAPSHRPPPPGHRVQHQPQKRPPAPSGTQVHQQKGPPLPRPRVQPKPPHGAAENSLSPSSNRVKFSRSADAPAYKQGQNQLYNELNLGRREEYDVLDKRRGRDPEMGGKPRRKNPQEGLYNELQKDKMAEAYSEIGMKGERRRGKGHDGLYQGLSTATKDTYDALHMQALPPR
Chain of CSR 2DH.2TF2z WT (chain, as listed by the source): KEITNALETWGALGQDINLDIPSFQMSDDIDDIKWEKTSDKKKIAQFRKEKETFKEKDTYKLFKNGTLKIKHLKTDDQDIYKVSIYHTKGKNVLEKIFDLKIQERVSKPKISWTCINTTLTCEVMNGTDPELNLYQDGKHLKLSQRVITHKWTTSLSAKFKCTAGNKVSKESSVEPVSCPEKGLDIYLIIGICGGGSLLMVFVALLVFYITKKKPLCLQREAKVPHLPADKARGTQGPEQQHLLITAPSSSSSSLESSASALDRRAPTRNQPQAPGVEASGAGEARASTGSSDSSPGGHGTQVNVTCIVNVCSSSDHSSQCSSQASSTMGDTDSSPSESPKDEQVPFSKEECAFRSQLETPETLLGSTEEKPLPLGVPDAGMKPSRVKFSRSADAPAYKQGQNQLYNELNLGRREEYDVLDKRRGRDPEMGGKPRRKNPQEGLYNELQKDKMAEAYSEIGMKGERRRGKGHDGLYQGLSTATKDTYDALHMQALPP

pSTAT5 Expression post activation in Treg cells (% of live cells), +16 hours, Donor 4 (CSR 01 CD2.DH.z): 7.1%
pSTAT5 Expression post activation in Treg cells (% of live cells), +16 hours, Donor 5 (CSR 01 CD2.DH.z): 10.3%
pSTAT5 Expression post activation in Treg cells (% of live cells), +24 hours, Donor 4 (CSR 01 CD2.DH.z): 10.5%
pSTAT5 Expression post activation in Treg cells (% of live cells), +24 hours, Donor 5 (CSR 01 CD2.DH.z): 11.1%
pSTAT5 Expression post activation in pan T cells (% of live cells), +4 hours, Donor 1 (% of live cells) (CSR 01 CD2.DH.z): 3.52
pSTAT5 Expression post activation in pan T cells (% of live cells), +4 hours, Donor 2 (% of live cells) (CSR 01 CD2.DH.z): 41.1
pSTAT5 Expression post activation in pan T cells (% of live cells), +24 hours, Donor 1 (% of live cells) (CSR 01 CD2.DH.z): 17.7
pSTAT5 Expression post activation in pan T cells (% of live cells), +24 hours, Donor 2 (CSR 01 CD2.DH.z): 47.9%
pSTAT5 Expression post activation in Treg cells (% of live cells), +16 hours, Donor 4 (% of live cells) (CSR 82DH.TF2z): 10.5
pSTAT5 Expression post activation in Treg cells (% of live cells), +24 hours, Donor 4 (% of live cells) (CSR 82DH.TF2z): 11.6
pSTAT5 Expression post activation in pan T cells (% of live cells), +4 hours, Donor 1 (% of live cells) (CSR 82DH.TF2z): 5.49
pSTAT5 Expression post activation in pan T cells (% of live cells), +4 hours, Donor 2 (% of live cells) (CSR 82DH.TF2z): 5.09
pSTAT5 Expression post activation in pan T cells (% of live cells), +24 hours, Donor 1 (% of live cells) (CSR 82DH.TF2z): 6.16
pSTAT5 Expression post activation in pan T cells (% of live cells), +24 hours, Donor 2 (% of live cells) (CSR 82DH.TF2z): 10.1
pSTAT5 Expression post activation in Treg cells (% of live cells), +16 hours, Donor 4 (CSR 82DH.2TF2z WT): 13.3%
pSTAT5 Expression post activation in Treg cells (% of live cells), +16 hours, Donor 5 (% of live cells) (CSR 82DH.2TF2z WT): 7.45
pSTAT5 Expression post activation in Treg cells (% of live cells), +24 hours, Donor 4 (CSR 82DH.2TF2z WT): 13.6%
pSTAT5 Expression post activation in Treg cells (% of live cells), +24 hours, Donor 5 (CSR 82DH.2TF2z WT): 9.16%
pSTAT5 Expression post activation in pan T cells (% of live cells), +4 hours, Donor 1 (CSR 82DH.2TF2z WT): 3.24%
pSTAT5 Expression post activation in pan T cells (% of live cells), +4 hours, Donor 2 (% of live cells) (CSR 82DH.2TF2z WT): 11
pSTAT5 Expression post activation in pan T cells (% of live cells), +24 hours, Donor 1 (% of live cells) (CSR 82DH.2TF2z WT): 5.5
pSTAT5 Expression post activation in pan T cells (% of live cells), +24 hours, Donor 2 (CSR 82DH.2TF2z WT): 6.36%
pSTAT5 Expression post activation in Treg cells (% of live cells), +16 hours, Donor 4 (CSR 2DH.2TF2z WT): 13.9%
pSTAT5 Expression post activation in Treg cells (% of live cells), +16 hours, Donor 5 (% of live cells) (CSR 2DH.2TF2z WT): 10.3
pSTAT5 Expression post activation in Treg cells (% of live cells), +24 hours, Donor 4 (% of live cells) (CSR 2DH.2TF2z WT): 15.8
pSTAT5 Expression post activation in Treg cells (% of live cells), +24 hours, Donor 5 (% of live cells) (CSR 2DH.2TF2z WT): 13.5
pSTAT5 Expression post activation in pan T cells (% of live cells), +4 hours, Donor 1 (CSR 2DH.2TF2z WT): 4.73%
pSTAT5 Expression post activation in pan T cells (% of live cells), +4 hours, Donor 2 (% of live cells) (CSR 2DH.2TF2z WT): 2.78
pSTAT5 Expression post activation in pan T cells (% of live cells), +24 hours, Donor 1 (% of live cells) (CSR 2DH.2TF2z WT): 8.34
pSTAT5 Expression post activation in pan T cells (% of live cells), +24 hours, Donor 2 (% of live cells) (CSR 2DH.2TF2z WT): 15.8
pSTAT5 Expression post activation in Treg cells (% of live cells), +16 hours, Donor 4 (% of live cells) (CSR 2DH.TF2z): 9.24
pSTAT5 Expression post activation in Treg cells (% of live cells), +24 hours, Donor 4 (% of live cells) (CSR 2DH.TF2z): 8.64
pSTAT5 Expression post activation in pan T cells (% of live cells), +4 hours, Donor 1 (% of live cells) (CSR 2DH.TF2z): 5.43
pSTAT5 Expression post activation in pan T cells (% of live cells), +4 hours, Donor 2 (CSR 2DH.TF2z): 4.2%
pSTAT5 Expression post activation in pan T cells (% of live cells), +24 hours, Donor 1 (CSR 2DH.TF2z): 5.67%
pSTAT5 Expression post activation in pan T cells (% of live cells), +24 hours, Donor 2 (CSR 2DH.TF2z): 5.17%
Substance: Immunocult Human CD2 T cell activator (StemCell Technologies)

Reference: patent US20230121433A1
